The values that follow are results of earlier work, collected in article PMC4465451.

This data set concerns the target His5 (UniProt position 30, DRVYIHPFHLV). Briefly: mass spectrometry. The settings on record: Free peptide, taken as fully solvent accessible.

Angiotensin III: the pKa (in general, the pH at which an ionisable group is half protonated) is 6.50.
